Data taken from publication PMC6051998, “Steric interference from intrinsically disordered regions controls dynamin-related protein 1 self-assembly during mitochondrial fission” (Scientific Reports, 2018).
Numbering of substitutions follows the chain as printed. Names and notes keep the numbering of the source. Values joined by “and” are separate entries in the source; they are usually repeats but may differ in a detail not shown here. Identical values can stand only once.

B1: Drp1ΔVD (Δ514–602) (natural protein, human, UniProt O00429-4 1-699, looked up)
chain: MEALIPVINKLQDVFNTVGADIIQLPQIVVVGTQSSGKSSVLESLVGRDLLPRGTGIVTRRPLILQLVHVSQEDKRKTTGEENGVEAEEWGKFLHTKNKLYTDFDEIRQEIENETERISGNNKGVSPEPIHLKIFSPNVVNLTLVDLPGMTKVPVGDQPKDIELQIRELILRFISNPNSIILAVTAANTDMATSEALKISREVDPDGRRTLAVITKLDLMDAGTDAMDVLMGRVIPVKLGIIGVVNRSQLDINNKKSVTDSIRDEYAFLQKKYPSLANRNGTKYLARTLNRLLMHHIRDCLPELKTRINVLAAQYQSLLNSYGEPVDDKSATLLQLITKFATEYCNTIEGTAKYIETSELCGGARICYIFHETFGRTLESVDPLGGLNTIDILTAIRNATGPRPALFVPEVSFELLVKRQIKRLEEPSLRCVELVHEEMQRIIQHCSNYSTQELLRFPKLHDAIVEVVTCLLRKRLPVTNEMVHNLVAIELAYINTKHPDFADACGLMNNNIEEQRDCEVIERLIKSYFLIVRKNIQDSVPKAVMHFLVNHVKDTLQSELVGQLYKSSLLDDLLTESEDMAQRRKEAADMLKALQGASQIIAEIRETHLW
notes: dynamin-related protein 1 (Drp1), human, with the variable domain deleted (Δ514–602); ~70 kDa monomer; source: E. coli BL21 Star (DE3), purified
B2: Drp1 R247A (full-length) (natural protein, human, UniProt O00429-4 1-699, looked up)
chain: MEALIPVINKLQDVFNTVGADIIQLPQIVVVGTQSSGKSSVLESLVGRDLLPRGTGIVTRRPLILQLVHVSQEDKRKTTGEENGVEAEEWGKFLHTKNKLYTDFDEIRQEIENETERISGNNKGVSPEPIHLKIFSPNVVNLTLVDLPGMTKVPVGDQPKDIELQIRELILRFISNPNSIILAVTAANTDMATSEALKISREVDPDGRRTLAVITKLDLMDAGTDAMDVLMGRVIPVKLGIIGVVNASQLDINNKKSVTDSIRDEYAFLQKKYPSLANRNGTKYLARTLNRLLMHHIRDCLPELKTRINVLAAQYQSLLNSYGEPVDDKSATLLQLITKFATEYCNTIEGTAKYIETSELCGGARICYIFHETFGRTLESVDPLGGLNTIDILTAIRNATGPRPALFVPEVSFELLVKRQIKRLEEPSLRCVELVHEEMQRIIQHCSNYSTQELLRFPKLHDAIVEVVTCLLRKRLPVTNEMVHNLVAIELAYINTKHPDFADACGLMNNNIEEQRRNRLARELPSAVSRDKVASGGGGVGDGVQEPTTGNWRGMLKTSKAEELLAEEKSKPIPIMPASPQKGHAVNLLDVPVPVARKLSAREQRDCEVIERLIKSYFLIVRKNIQDSVPKAVMHFLVNHVKDTLQSELVGQLYKSSLLDDLLTESEDMAQRRKEAADMLKALQGASQIIAEIRETHLW
notes: dynamin-related protein 1 (Drp1), human, full length, with R247A in the GTPase domain; source: E. coli BL21 Star (DE3), purified
B3: Drp1 G350D (full-length stalk L1N mutant) (natural protein, human, UniProt O00429-4 1-699, looked up)
chain: B2 chain with A247R, G350D
notes: dynamin-related protein 1 (Drp1), human, short isoform (isoform 3, 699 a.a.) with G350D; source: E. coli BL21 Star (DE3), purified
B4: full-length Drp1 WT (Drp1 short; human isoform 3; 699 a.a.) (natural protein, UniProt O00429-4 1-699, looked up)
chain: B2 chain with A247R
notes: dynamin-related protein 1 (Drp1), human, short isoform; human isoform 3; 699 a.a; also called Drp1-short-80-loop; dynamin-related protein 1; source: E. coli BL21 Star (DE3), purified

What was measured:
[1] = molecular target: the molecule itself; test: SEC-MALS; included (soluble) fraction of Drp1ΔVD loaded at 6 μM onto Superose 6 10/300 GL
[2] = molecular target: full-length Mff (mitochondrial fission factor), reconstituted in CL-free nanotubes or liposomes; test: cell-based or functional assay
[3] = molecular target: the molecule itself; test: SEC-MALS; full-length Drp1 WT and mutants, nucleotide-free, each loaded at 10 μM in 500 μl onto Superose 6 10/300 GL in Buffer A (20 mM HEPES pH 7.5, 150 mM KCl) with 1 mM DTT

Binder	stoichiometry N [1]	Mff-stimulated GTPase activity on NT compared to Drp1 WT [2]	stoichiometry N [3]
B1	4	–	–
B2	–	3 fold	2 and 4
B3	–	–	2
B4	–	–	4 and 2
